This note sets out measurements from patent US20140004536A1 (PERSEUS PROTEOMICS, published 2014).

The assay deals with T1, human LY6D (human, UniProt Q14210 21-98, GPI anchor).
T1 construct: whole, on cells; On living cells for FCM, cell ELISA and microscopy; Solubilised from biotinylated cells with surfactant (or released by PI-PLC) for immunoprecipitation and western blot; also called E48 antigen
T1 sequence (looked up): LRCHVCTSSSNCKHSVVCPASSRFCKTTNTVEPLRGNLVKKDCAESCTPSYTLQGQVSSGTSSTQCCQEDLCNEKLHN
Description: confocal laser microscopy, cell ELISA and FCM on X-ray-irradiated MCF10A cells; the antigen is identified as LY6D later in the filing. For orientation: ELISA stands for enzyme-linked immunosorbent assay.
Description: X-ray-irradiated cells and non-irradiated cells were prepared, and antibodies specific to the irradiated cells were screened for by cell ELISA. That is, reactivity of antibody to both cells was examined by ELISA. A blocking solution (5% skim milk/0.05% NaN₃/PBS) was added at 200 μL/well to both cells, followed by blocking at 37° C. for 2 hours. The blocking solution was removed and the cells were washed with PBS. The supernatant of the above antibody expression culture was added at 100 μL/well, followed by reaction at 37° C. for 1 hour. The resultant was washed five times with PBS. Rabbit anti-cp3 (1 μg/mL) diluted with PBS/0.05% Tween 20 was added at 100 μL/well, followed by reaction at 37° C. for 1 hour. The resultant was washed five times with PBS. Anti-Rabbit IgG (H+L)-HRP diluted 2000-fold with PBS/0.05% Tween 20 was further added at 100 μL/well, followed by reaction at 37° C. for 1 hour. The resultant was washed five times with PBS. […] Then, the absorbance at 492 nm was measured by SPECTRAmax340PC (Molecular Devices). Antibodies showing obvious positive reactivity specific to only the irradiated cells were selected and DNA sequences of the phages were analyzed.
Selection of clones from the antibody library was carried out as follows. […] The 20 candidates were analyzed by flow cytometry (FCM).

B1: E33-139 monoclonal antibody (scFv)
scFv: MAEVQLVESGGGLVQPGRSLRLSCAASGFTFDDYAMHWVRQAPGKGLEWVSGISWNSGSIGYADSVKGRFTISRDNAKNSLYLQMNSLRAEDTALYYCAKTGILDAFDIWGQGTTVTVSRGGGGSGGGGSGGGGSMAQSVLTQPPSVSGAPRQTVTISCSGSSSNIGQNSVTWYQRLPGEAPKLLIYYDDLLHSGVSDRFSGSKSGTSASLAISGLQSEDEAEYYCASWDDSLKGPVFGGGTKLTVLGQPKAAPSVTLFPPSSEELQANKATLVCLISDFYPGAVTVAWKADSSPVKAGVETTTPSKQSNNKYAASSYLSLTPEQWKSHKSYSCQVTHEGSTVEKTVAPTECSAR
notes: Human phage antibody from the AIMS5 library; No result is reported for the IgG; not shown: clones were tested as scFv-CL fused to cp3 or to the protein A domain (scFv-CL-P)
For B1, the binding result is reported as “binds”.
